Here are results for one molecule from patent publication US20220323386A1 (UNIVERSITY OF SOUTHERN CALIFORNIA, published 2022).

For the assay, the target named is neurogenic locus notch homolog protein 1 (NOTCH1) (UniProt P46531 19-2555, limits assumed). Nature of the assay: large-scale immunoaffinity purification and LC-MS analysis.
Chain of neurogenic locus notch homolog protein 1 (NOTCH1) (P46531 19-2555 limits assumed): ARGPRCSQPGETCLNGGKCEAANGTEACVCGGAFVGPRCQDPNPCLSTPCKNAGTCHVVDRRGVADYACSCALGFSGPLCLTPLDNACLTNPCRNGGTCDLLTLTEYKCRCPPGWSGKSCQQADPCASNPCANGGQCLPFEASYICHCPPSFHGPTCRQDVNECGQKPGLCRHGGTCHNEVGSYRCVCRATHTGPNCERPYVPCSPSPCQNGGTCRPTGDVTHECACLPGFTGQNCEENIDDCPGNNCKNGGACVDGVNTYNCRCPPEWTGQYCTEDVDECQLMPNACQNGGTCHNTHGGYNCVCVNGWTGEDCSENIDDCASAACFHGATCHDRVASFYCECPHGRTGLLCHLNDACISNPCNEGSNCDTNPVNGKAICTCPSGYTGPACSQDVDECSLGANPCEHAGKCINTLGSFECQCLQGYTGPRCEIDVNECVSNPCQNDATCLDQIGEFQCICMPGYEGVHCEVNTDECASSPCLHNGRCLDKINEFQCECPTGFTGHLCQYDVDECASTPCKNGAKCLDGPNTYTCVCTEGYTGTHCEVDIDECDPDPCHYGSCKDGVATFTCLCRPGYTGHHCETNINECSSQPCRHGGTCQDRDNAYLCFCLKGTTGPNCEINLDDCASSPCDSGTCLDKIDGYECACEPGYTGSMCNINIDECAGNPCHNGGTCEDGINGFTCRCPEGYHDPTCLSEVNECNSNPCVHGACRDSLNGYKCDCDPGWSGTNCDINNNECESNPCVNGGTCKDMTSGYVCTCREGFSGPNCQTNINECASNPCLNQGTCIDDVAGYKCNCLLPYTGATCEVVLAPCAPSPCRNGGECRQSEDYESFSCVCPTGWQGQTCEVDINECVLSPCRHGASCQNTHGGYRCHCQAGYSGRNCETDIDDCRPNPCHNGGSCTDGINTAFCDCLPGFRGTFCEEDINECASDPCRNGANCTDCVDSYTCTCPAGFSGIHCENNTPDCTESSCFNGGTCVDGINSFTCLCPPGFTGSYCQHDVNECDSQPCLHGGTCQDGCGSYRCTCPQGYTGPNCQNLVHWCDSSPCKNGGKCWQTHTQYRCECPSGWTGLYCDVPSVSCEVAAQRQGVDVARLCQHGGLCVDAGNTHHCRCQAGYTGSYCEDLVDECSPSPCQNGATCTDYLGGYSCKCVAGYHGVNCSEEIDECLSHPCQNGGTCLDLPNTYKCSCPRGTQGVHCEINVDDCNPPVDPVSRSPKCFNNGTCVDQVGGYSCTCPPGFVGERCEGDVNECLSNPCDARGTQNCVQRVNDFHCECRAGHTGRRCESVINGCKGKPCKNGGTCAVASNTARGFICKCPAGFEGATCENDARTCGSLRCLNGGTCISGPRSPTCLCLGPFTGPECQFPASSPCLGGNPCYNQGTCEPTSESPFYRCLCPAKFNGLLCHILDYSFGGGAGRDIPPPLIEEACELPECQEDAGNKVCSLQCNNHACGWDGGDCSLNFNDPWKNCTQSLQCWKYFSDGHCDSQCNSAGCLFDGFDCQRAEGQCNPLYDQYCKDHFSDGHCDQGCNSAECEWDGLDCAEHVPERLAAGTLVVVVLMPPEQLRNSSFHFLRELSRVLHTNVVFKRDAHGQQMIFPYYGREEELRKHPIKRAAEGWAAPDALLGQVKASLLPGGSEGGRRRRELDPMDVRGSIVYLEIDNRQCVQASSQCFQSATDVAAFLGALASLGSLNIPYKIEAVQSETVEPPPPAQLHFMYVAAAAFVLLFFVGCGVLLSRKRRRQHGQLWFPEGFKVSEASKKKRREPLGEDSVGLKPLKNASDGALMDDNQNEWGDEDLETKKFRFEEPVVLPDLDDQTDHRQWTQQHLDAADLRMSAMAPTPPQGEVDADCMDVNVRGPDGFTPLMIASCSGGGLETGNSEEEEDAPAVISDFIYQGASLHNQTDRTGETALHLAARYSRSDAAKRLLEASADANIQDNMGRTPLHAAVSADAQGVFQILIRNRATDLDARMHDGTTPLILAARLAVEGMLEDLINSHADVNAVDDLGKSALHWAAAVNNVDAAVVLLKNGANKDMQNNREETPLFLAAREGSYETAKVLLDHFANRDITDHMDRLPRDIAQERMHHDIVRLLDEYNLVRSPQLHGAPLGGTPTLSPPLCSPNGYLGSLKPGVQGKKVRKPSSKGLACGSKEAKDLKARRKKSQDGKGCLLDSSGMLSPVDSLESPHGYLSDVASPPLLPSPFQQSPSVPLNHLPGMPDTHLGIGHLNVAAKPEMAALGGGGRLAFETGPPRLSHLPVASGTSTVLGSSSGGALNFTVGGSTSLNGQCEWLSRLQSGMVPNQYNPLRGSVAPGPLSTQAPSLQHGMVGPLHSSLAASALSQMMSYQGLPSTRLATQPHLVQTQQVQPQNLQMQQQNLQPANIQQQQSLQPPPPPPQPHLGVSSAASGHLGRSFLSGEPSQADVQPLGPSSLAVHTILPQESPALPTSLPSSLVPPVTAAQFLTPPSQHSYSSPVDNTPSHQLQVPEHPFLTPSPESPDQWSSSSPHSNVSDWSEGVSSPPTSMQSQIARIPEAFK

B1: Tre2-Bub2-Cdc16 domain family member 15 (TBC1D15) (other, UniProt Q8TC07 1-691, looked up)
chain: MAAAGVVSGKIIYEQEGVYIHSSCGKTNDQDGLISGILRVLEKDAEVIVDWRPLDDALDSSSILYARKDSSSVVEWTQAPKERGHRGSEHLNSYEAEWDMVNTVSFKRKPHTNGDAPSHRNGKSKWSFLFSLTDLKSIKQNKEGMGWSYLVFCLKDDVVLPALHFHQGDSKLLIESLEKYVVLCESPQDKRTLLVNCQNKSLSQSFENLLDEPAYGLIQAGLLDRRKLLWAIHHWKKIKKDPYTATMIGFSKVTNYIFDSLRGSDPSTHQRPPSEMADFLSDAIPGLKINQQEEPGFEVITRIDLGERPVVQRREPVSLEEWTKNIDSEGRILNVDNMKQMIFRGGLSHALRKQAWKFLLGYFPWDSTKEERTQLQKQKTDEYFRMKLQWKSISQEQEKRNSRLRDYRSLIEKDVNRTDRTNKFYEGQDNPGLILLHDILMTYCMYDFDLGYVQGMSDLLSPLLYVMENEVDAFWCFASYMDQMHQNFEEQMQGMKTQLIQLSTLLRLLDSGFCSYLESQDSGYLYFCFRWLLIRFKREFSFLDILRLWEVMWTELPCTNFHLLLCCAILESEKQQIMEKHYGFNEILKHINELSMKIDVEDILCKAEAISLQMVKCKELPQAVCEILGLQGSEVTTPDSDVGEDENVVMTPCPTSAFQSNALPTLSASGARNDSPTQIPVSSDVCRLTPA
notes: TBC1D15 as present in cell lysates (co-IP); also called TBC1 domain family member 15
On to B1, for which the binding result was “binds”.
